Values belong to the binder of their own block, whether it stands above or below them.
Columns and labels:
[1] = biological target: T1, human MSLN expressed on CHO cells (human, UniProt Q13421 296-598); test: flow cytometry, antibody supernatant on CHO cells expressing human MSLN
T1 construct: whole, on cells; also called CHO-huMSLN
Description: Pelleted CHO cells were resuspended in flow buffer (1X phosphate buffered saline (PBS), 1% bovine serum albumin (BSA), and 0.1% NaN₃) at 1.25 × 10⁶ cells/mL. Antibody containing supernatants were diluted 1:5 in flow buffer, and 40 µL cells plus 10 µL diluted antibody supernatant were incubated for 30 minutes at 4° C. Cells were washed with flow buffer and resuspended in 50 µL phycoerythrin (PE)-conjugated secondary antibody (Southern Biotech #2042-09) diluted in flow buffer to 1.25 µg/mL and incubated for 20 minutes at 4° C. After two wash steps, cells were resuspended in flow buffer and analyzed using a Guava easyCyte 8HT system. Table E1 summarizes the target binding activity of the anti-MSLN single domain antibodies as fold over background MFI signal.

[2] = biological target: T1, human MSLN expressed on CHO cells; test: flow cytometry dose curve on CHO cells expressing human MSLN
Description: Cell-binding dose curves for example anti-MSLN single domain antibodies described herein were performed using CHO cells expressing human MSLN (FIG. 1A), HeLa cells (FIG. 1B), and CHO-OFFtgt cells (FIG. 1C). The single domain antibodies were tested at a starting concentration of 150 nM, followed by 3-fold serial dilutions for an 8-point dose curve. All washes and dilutions of cells, antibodies, and reagents were performed using flow buffer (1X phosphate buffered saline (PBS), 1% bovine serum albumin (BSA), and 0.1% NaN₃). Cells were pelleted and resuspended at 1 × 10⁶ cells/mL in flow buffer. Then, 50 µL cells were combined with 50 µL of test antibody and incubated 30 minutes at 4° C., followed by two wash steps with flow buffer. Cells were then resuspended in 50 µL PE-conjugated secondary diluted to 1.25 µg/mL (Southern Biotech #2042-09) and incubated for 20 minutes at 4° C. After two wash steps, cells were resuspended in flow buffer and analyzed using a BD Celesta system. PE mean fluorescence intensity was plotted as a fold over background (cells incubated with secondary detection antibody only).
To determine cell binding EC50 values for example anti-MSLN single domain antibodies of the present disclosure, cell binding dose curves were performed on HeLa cells and CHO cells expressing human MSLN. […]

[3] = biological target: T2, recombinant human MSLN (R&D Systems, #3265-MS) (human, UniProt Q13421 296-580, limits assumed); test: BLI (Octet HTX), antibody on AHC sensor, antigen in solution, 1:1 model
T2 construct: Bought protein; also called antigen
Description: Table E3 summarizes affinity and epitope bin information for example anti-MSLN single domain antibodies of the present disclosure. The affinity of each single domain antibody to recombinant human MSLN (R&D Systems, #3265-MS) was measured by Bio-layer interferometry (BLI) using an Octet HTX. AHC (Anti-hIgG Fc Capture) sensors were used to immobilize test antibody at 5 µg/mL. After baseline readings, sensors were dipped into antigen solutions (starting at 500 nM followed by a 7-point, 2-fold dilution series). Association and dissociation were measured for 180 and 240 seconds respectively. Data were analyzed with Octet Data Analysis v11.0 HT (ForteBio) using a standard 1:1 binding model. Epitope bins for the single domain antibodies were determined by an in-tandem competition BLI binding experiment using an Octet HTX. The antigen (5 µg/mL) was loaded on the sensor Ni-NTA sensor followed by a baseline in kinetic buffer. The antigen coated sensor was then dipped into a saturating concentration Antibody 1. A second baseline was now set for 300 sec. Then the antigen-antibody 1 complex was dipped into Antibody 2 solution for 180 sec and then allowed to dissociate.

[4] = biological target: MSLN on HeLa cells (human) (UniProt Q13421); test: flow cytometry dose curve on HeLa cells
Sequence of MSLN on HeLa cells (human) (Q13421 other isoform, or with tags, fused parts or gaps limits assumed): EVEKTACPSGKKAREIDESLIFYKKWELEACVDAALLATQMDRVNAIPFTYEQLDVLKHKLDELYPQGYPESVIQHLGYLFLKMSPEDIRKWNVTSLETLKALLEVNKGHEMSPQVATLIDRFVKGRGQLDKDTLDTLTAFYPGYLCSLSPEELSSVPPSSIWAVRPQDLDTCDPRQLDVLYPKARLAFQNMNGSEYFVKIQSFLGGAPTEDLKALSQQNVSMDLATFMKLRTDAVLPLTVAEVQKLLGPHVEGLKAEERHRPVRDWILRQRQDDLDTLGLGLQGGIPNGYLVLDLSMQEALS

T2 sequence (Q13421 other isoform, or with tags, fused parts or gaps limits assumed): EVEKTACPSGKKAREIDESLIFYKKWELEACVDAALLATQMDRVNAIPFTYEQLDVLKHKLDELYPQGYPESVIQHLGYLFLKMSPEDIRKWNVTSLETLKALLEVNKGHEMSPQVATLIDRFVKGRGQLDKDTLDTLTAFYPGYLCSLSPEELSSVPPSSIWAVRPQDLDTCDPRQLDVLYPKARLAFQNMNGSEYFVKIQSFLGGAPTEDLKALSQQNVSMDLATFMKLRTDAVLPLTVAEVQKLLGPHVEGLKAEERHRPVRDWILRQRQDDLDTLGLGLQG

B1: anti-MSLN single domain antibody clone 394556 (VHH)
VHH: QLQLQESGPGLVKPSETLSLTCTVSGGSISNSYYWGWIRQPPGKGLEWIGSIYHSGNTYYNPSLKSRVTISVDTSKNQFSLKLSSVTAADTAVYYCVTQDGVGATTTEEYWGQGTLVTVSS
notes: Human VH single domain antibody; It was captured on anti-hIgG Fc (AHC) sensors, so it apparently carried a human Fc
fold over background MFI signal [1]: 540 fold over background | EC50 [2]: 2.9 nM | Kd [3]: 90.4 nM | EC50 [4]: 2.5 nM

B2: anti-MSLN single domain antibody clone 392026 (VHH)
VHH: QLQLQESGPGLVKPSETLSLTCTVSGGSISNSYYWGWIRQPPGKGLEWIGSIYHSGNTYYNPSLKSRVTISVDTSKNQFSLKLSSVTAADTAVYYCTSQDGVGATTTEEYWGQGTLVTVSS
EC50 [4]: 9.8 nM

B3: anti-MSLN single domain antibody clone 394541 (VHH)
VHH: QLQLQESGPGLVKPSETLSLTCTVSGGSISNSYYWGWIRQPPGKGLEWIGSIYHSGNTYYNPSLKSRVTMSVDTSKNQFSLKLSSVTAADTAVYYCTSQDGVGATTTEEYWGQGTLVTVSS
notes: Human VH single domain antibody; It was captured on anti-hIgG Fc sensors
fold over background MFI signal [1]: 422 fold over background | Kd [3]: 3800 nM

B4: anti-MSLN single domain antibody clone 394573 (VHH)
VHH: QLQLQESGPGLVKPSETLSLTCTVSGGSISNSYYWGWIRQPPGKGLEWIGSIYHSGNTYYNPSLKSRVTISVDTSKNQFSLKLSSVTAADTAVYYCATQNGVGATTTEEYWGQGTLVTVSS
notes: Human VH single domain antibody; Tested as antibody-containing supernatant
fold over background MFI signal [1]: 194 fold over background

B8: anti-MSLN single domain antibody clone 394567 (VHH)
VHH: QLQLQESGPGLVKPSETLSLTCTVSGGSISNSYYWGWIRQPPGKGLEWIGSIYYSGSIHYNPSLKSRVTISVDTSKNQFSLKLSSVTAADTAVYYCTSQDGVGATTTEEYWGQGTLVTVSS
notes: as for B4
fold over background MFI signal [1]: 16.9 fold over background

Continued, values first:

fold over background MFI signal [1]: 367 fold over background | EC50 [2]: 2.2 nM | Kd [3]: 220 nM | EC50 [4]: 1.3 nM
B5: anti-MSLN single domain antibody clone 394582 (VHH)
VHH: QLQLQESGPGLVKPSETLSLTCTVSGGSISNSYYWGWIRQPPGKGLEWIGSIYHSGNTYYNPSLKSRVTISVDTSKNQFSLKLSSVTAADTAVYYCTTQNGVGATTTEEYWGQGTLVTVSS
notes: as for B3

fold over background MFI signal [1]: 78 fold over background
B6: anti-MSLN single domain antibody clone 394610 (VHH)
VHH: QLQLQESGPGLVKPSETLSLTCTVSGGSISSSYYWGWIRQPPGKGLEWIGSIYHSGNTYYNPSLKSRVTISVDTSKNQFSLKLSSVTAADTAVYYCTSQDGVGATTTEEYWGQGTLVTVSS
notes: as for B4

fold over background MFI signal [1]: 141 fold over background
B7: anti-MSLN single domain antibody clone 394607 (VHH)
VHH: QLQLQESGPGLVKPSETLSLTCTVSGGSISNSYYWGWIRQPPGKGLEWIGSIYYSGSTYYNPSLKSRVTISVDTSKNQFSLSLNSVTAADTAVYYCATQDGVGATTTEEYWGQGTLVTVSS
notes: as for B4

fold over background MFI signal [1]: 87.3 fold over background
B9: anti-MSLN single domain antibody clone 394606 (VHH)
VHH: QLQLQESGPGLVKPSETLSLTCTVSGGSISSSYYWGWIRQPPGKGLEWIGSIYHSGNTYYNPSLKSRVTISVDTSKNQFSLKLSSVTAADTAVYYCATQNGVGATTTEEYWGQGTLVTVSS
notes: as for B4

Reference: patent US20230192843A1 (TENEOBIO, published 2023)
